Measured values reported in IntAct's records for PubMed 24165923.

Molecular target: rspo1_human RSPO1 (UniProt Q2MKA7)
Sequence (Q2MKA7 whole entry): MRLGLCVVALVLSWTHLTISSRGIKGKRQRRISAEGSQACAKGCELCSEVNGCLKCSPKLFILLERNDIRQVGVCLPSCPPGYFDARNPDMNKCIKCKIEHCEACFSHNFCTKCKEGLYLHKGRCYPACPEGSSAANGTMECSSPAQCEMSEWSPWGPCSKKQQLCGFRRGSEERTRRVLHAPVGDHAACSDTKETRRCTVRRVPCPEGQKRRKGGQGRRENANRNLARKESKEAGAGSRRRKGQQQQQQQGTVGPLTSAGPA

- effect of a mutation on the interaction: disrupting interaction
Substance: E3 ubiquitin-protein ligase ZNRF3 (Homo sapiens), Q9ULT6 P103A
